Measured values from doi:10.1101/2023.02.21.529469.

Target: T1, His-Lmo2795 (RpiR family regulator) (UniProt Q8Y3P0)
T1 sequence: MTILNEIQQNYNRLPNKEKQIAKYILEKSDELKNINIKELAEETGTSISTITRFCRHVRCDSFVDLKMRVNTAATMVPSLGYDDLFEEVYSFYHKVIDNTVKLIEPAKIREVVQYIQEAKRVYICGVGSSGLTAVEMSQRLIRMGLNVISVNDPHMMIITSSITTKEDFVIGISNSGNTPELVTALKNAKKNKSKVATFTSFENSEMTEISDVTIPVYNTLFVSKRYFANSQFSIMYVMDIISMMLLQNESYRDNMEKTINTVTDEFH
Test: EMSA

**Q.** “CGGAACACCCAACAAATTACCAATCGAATAAACTAACAAAGTCCTTTCAAGCGAAAGGACTTTTTATTTTTAACAGCAACGTCATTTTTTAAAGCTAGTTTCCGCAACTATCCACGCTAAAACATGAAAATCATTTTCATTTAATTGATATTGATAAAATCATTTTCTTATGATATAGTCTGTTTGAAAACGCATACTTTACACTGAAACACAGTATAGAGGAGGAGTATCAGTGGGCAATTCTGTTATGGAAAAAATCAAAGGTGGGTTAG (double strand) [lmo2795-nanE upstream (promoter) fragment]” was tested. Which binding did it give?
**A.** The binding was “binds”.
